Data reported in patent US20250032629A1, “NOVEL NUCLEOLIN-BINDING PEPTIDE AND USE THEREOF” (ANYGEN CO., LTD., priority 2020, published 2025).
Ends that are not written are not given here.

Tests used:
MCF-10A and CCD-18Co = experiment: Cell-growth-on-bead assay, normal cell lines; assay type: cell-based, human
Protocol: (§1) Here, multiple breast and colorectal cancer cells and normal breast and colorectal cells were re-suspended at 10^6 cells/ml and incubated with beads. All experiments were repeated 3 times, and the scale bar is 200 μm. […] Here, nuclei were stained with DAPI (blue), and scale bar is 50 μm. […] Here, a whole-cell binding assay was performed to determine the cell binding of AGM-330, and the scale bar is 200 μm. […] Fmoc=9-fluorenylmethoxycarbonyl, DMF=dimethylformamide. […] Here, bar graphs represent the mean±SD, and statistical analyses were performed by one-way ANOVA with Dunnett's multiple comparison. *, **, and *** indicate P<0.05, P<0.01, and P<0.001, respectively.
(§2) The beads were washed extensively with double-distilled water and phosphate-buffered saline (PBS; Welgene Inc., Korea) before screening. Cancer cells and normal cells were detached from culture dishes with trypsin/EDTA (Gibco), washed with their corresponding culture medium, resuspended at 10^6 cells/ml, and incubated with OBOC beads in Petri dishes in a humidified CO2 incubator at 37° C. with shaking (60 rpm). Beads bound by cells appeared under a microscope as rosettes with a central bead covered by one or more layers of cells. The positive beads were picked by pipette under an inverted microscope, treated with guanidine-HCL (8 M, 20 min) to remove cells and proteins on the bead surface, and subjected to a second round of screening with normal breast epithelial cells to eliminate false positive binding. Only beads with cell binding at both rounds were sent for peptide sequencing.
(§3) To identify a novel cancer-specific peptide ligand, the present inventors synthesized about 2, 600,000 libraries using 5 g of Tentagel MB NH2 resin (200 μm, 520,000 beads/g; FIG. 3).

MCF-10A = experiment: Whole-cell binding (cell-growth-on-bead) assay of screened peptide beads; assay type: cell-based, human
Protocol: as §1, §2, §3

MDA-MB-231 = experiment: as above; assay type: cell-based, human
Protocol: as §1, §2, §3

Cancer cells = experiment: ELISA for the affinities of AGM-330 and its variants on cancer cells; assay type: cell-based; settings: biotin-conjugated PEGylated peptides, 2 hours, read at 450
Protocol: (§4) Then, avidin-HRP was attached through a high-affinity avidin-biotin interaction, and the TMB substrate was converted to blue through HRP enzyme. Then, the reaction was terminated by adding an acid, and the affinities of the 13 peptides were assessed by ELISA by reading the wells at […].
Cancer cells (1×10^4 cells/well) were cultured in 96-well plates for 24 hours. AGM-330 and the 12 PEGylated peptides shown Table 2 were biotin-conjugated, and the cells were treated with increasing concentrations of the 13 peptides for 2 hours.
as §4, with “Thereafter, avidin-HRP” for “Then, avidin-HRP”, “blue color” for “blue”

NCL = NCL (Homo sapiens, UniProt P19338); experiment: siRNA-mediated knockdown of NCL (real-time PCR, Western blot); assay type: cell-based
[1] = target: T1, membrane nucleolin (NCL) on cancer cells (human, UniProt P19338 2-710); experiment: cell ELISA: biotin-conjugated PEGylated peptide on cancer cells (cell line not given), 2 h, avidin-HRP/TMB, absorbance at 450 nm
T1 construct: whole, on cells; also called membrane NCL; membrane-expressed NCL
Protocol: as §4, with “Cancer cells (1×10⁴ cells/well) were seeded in 96-well plates and cultured for 24 hours, and then the cells were treated with increasing concentrations of 13 biotin-conjugated peptides for 2 hours. Then, avidin-HRP” for “Then, avidin-HRP”
Cancer cells (1×10⁴ cells/well) were cultured in 96-well plates for 24 hours. AGM-330 and the 12 PEGylated peptides shown Table 2 were biotin-conjugated, and the cells were treated with increasing concentrations of the 13 peptides for 2 hours.
as §4, with “Thereafter, avidin-HRP” for “Then, avidin-HRP”, “blue color” for “blue”

T1 sequence (P19338 2-710): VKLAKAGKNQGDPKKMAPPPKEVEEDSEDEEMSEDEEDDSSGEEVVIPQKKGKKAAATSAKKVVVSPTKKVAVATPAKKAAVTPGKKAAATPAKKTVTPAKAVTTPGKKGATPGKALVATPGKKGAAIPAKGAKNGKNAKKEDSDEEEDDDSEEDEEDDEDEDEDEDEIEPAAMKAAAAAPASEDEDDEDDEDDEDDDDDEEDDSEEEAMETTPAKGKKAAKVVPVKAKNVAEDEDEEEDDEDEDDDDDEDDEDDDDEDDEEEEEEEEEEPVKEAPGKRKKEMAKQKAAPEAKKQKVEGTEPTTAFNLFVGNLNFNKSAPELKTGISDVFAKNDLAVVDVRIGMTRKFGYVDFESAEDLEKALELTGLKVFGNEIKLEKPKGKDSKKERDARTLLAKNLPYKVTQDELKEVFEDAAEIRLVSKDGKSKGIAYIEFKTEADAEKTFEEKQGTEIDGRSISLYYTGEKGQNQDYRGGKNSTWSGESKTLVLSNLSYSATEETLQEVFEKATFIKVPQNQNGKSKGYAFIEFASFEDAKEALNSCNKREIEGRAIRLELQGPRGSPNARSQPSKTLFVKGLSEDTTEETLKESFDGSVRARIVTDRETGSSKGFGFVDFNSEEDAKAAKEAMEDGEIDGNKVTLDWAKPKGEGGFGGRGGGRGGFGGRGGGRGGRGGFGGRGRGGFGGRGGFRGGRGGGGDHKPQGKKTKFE
Chain of NCL (P19338 whole entry): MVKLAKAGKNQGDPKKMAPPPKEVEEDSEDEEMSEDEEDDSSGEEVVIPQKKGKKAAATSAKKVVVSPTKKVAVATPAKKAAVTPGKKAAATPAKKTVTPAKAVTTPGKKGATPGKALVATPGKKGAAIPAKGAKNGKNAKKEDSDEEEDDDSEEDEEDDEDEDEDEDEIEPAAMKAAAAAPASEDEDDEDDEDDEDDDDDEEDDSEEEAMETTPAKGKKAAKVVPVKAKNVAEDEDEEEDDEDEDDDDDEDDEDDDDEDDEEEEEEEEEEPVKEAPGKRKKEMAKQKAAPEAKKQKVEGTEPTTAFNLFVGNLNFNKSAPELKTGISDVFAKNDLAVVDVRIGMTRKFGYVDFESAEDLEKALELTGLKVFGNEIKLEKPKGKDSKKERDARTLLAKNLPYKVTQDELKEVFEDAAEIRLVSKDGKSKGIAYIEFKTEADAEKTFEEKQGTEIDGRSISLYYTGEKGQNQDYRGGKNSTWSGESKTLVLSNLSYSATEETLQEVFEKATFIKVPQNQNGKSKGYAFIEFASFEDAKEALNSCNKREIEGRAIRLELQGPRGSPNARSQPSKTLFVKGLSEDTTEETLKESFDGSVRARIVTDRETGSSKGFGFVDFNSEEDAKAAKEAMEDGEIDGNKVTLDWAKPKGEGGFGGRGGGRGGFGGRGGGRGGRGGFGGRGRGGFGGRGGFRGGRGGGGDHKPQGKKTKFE

## ADHRHRRSG (AGM-331)
MCF-10A and CCD-18Co
  binding to normal cell lines MCF-10A and CCD-18Co: relatively nonspecific and bound
MCF-10A
  binding to the human normal breast cell line MCF-10A: no or only weak binding
MDA-MB-231
  binding to MDA-MB-231: strong preferential binding

## AVARARRRR (AGM-332)
MCF-10A and CCD-18Co
  binding to normal cell lines MCF-10A and CCD-18Co: relatively nonspecific and bound
MCF-10A
  binding to the human normal breast cell line MCF-10A: no or only weak binding
MDA-MB-231
  binding to MDA-MB-231: strong preferential binding

## RHGA(Nle)VYLK (RHGAXVYLK; norleucine at position 5; AGM-330; Xaa can be any naturally occurring amino acid) [SEQ ID NO: 13]
Cancer cells
  absorbance (binding affinity) compared with AGM-330: higher absorbance than AGM-330

## RHGALVYLK (not fully specified) [SEQ ID NO: 12, AGM-330 variant, tested PEGylated and biotin-conjugated]
Cancer cells
  absorbance (binding affinity) compared with AGM-330: higher absorbance than AGM-330

## RHGAMVFLK (not fully specified) [SEQ ID NO: 15, AGM-330 variant, tested PEGylated and biotin-conjugated]
Cancer cells
  absorbance (binding affinity) compared with AGM-330: higher absorbance than AGM-330

## RHGAMVYLKLKLK (not fully specified) [SEQ ID NO: 20, AGM-330 variant, tested PEGylated and biotin-conjugated]
Cancer cells
  absorbance (binding affinity) compared with AGM-330: higher absorbance than AGM-330

## siNCL1: siRNA targeting NCL, sense 5′-GAGCUAACCCUUAUCUGUA(dTdT)-3′ (SEQ ID NO: 21/22) (antisense UACAGAUAAGGGUUAGCUC; dTdT overhangs, further chemistry not given here)
NCL; MDA-MB-231 cells, among siNCL1, siNCL2, siNCL3
  NCL knockdown efficacy (mRNA): highest knockdown efficacy
NCL; siNCL1-treated cells
  basal expression of NCL in cytosolic and cell membrane fractions (Western blotting): potently inhibited

## RHGLMVYLK (also: PEGylated, biotin-conjugated (sites not given here)) [AGM-330 variant A4 → L4 (SEQ ID NO: 11)]
[1]
  EC50 (read off the curve): ~2000 nM

## RRGAMVYLK (also: PEGylated, biotin-conjugated (sites not given here)) [AGM-330 variant H2 → R2 (SEQ ID NO: 10)]
[1]
  EC50 (read off the curve): ~2000 nM

## RHGALVYLK (also: PEGylated, biotin-conjugated (sites not given here)) [AGM-330 variant M5 → L5 (SEQ ID NO: 12)]
[1]
  EC50 (read off the curve): ~2000 nM

## KHGAMVYLK (also: PEGylated, biotin-conjugated (sites not given here)) [AGM-330 variant R1 → K1 (SEQ ID NO: 9)]
[1]
  EC50 (read off the curve): ~2000 nM

## RHGAMAYLK (also: PEGylated (site not given here), biotin-conjugated (site not given here)) [AGM-330 variant V6 → A6 (SEQ ID NO: 14)]
[1]
  EC50 (read off the curve): ~2000 nM

## RHGAMVFLK (also: PEGylated (site not given here), biotin-conjugated (site not given here)) [AGM-330 variant Y7 → F7 (SEQ ID NO: 15)]
[1]
  EC50 (read off the curve): ~2000 nM

## RHGAXVYLK (norleucine (Nle) at position 5; PEGylated; biotin-conjugated (sites not given), also called RHGA(Nle)VYLK) [AGM-330 variant M5 → Nle5 (SEQ ID NO: 13)]
[1]
  binding result: binds

## GAMVYLK (also: PEGylated, biotin-conjugated (sites not given here), also called GAMVYLK) [AGM-330 variant R1H2 → Deletion (SEQ ID NO: 16)]
[1]
  binding result: binds

## RHRHGAMVYLK (also: PEGylated, biotin-conjugated (sites not given here)) [AGM-330 variant R1H2 → Insertion (SEQ ID NO: 17)]
[1]
  binding result: binds

## RHRHRHGAMVYLK (also: PEGylated (site not given here), biotin-conjugated (site not given here)) [AGM-330 variant R1H2R3H4 → Insertion (SEQ ID NO: 18)]
[1]
  EC50 (read off the curve): ~2000 nM

## KLYVMAGHR (also: PEGylated (site not given here), biotin-conjugated (site not given here)) [AGM-330 variant Reverse sequence (SEQ ID NO: 19)]
[1]
  binding result: binds

## RHGAMVYLKLKLK (also: PEGylated, biotin-conjugated (sites not given here)) [AGM-330 variant L10K11L12K13 → Insertion (SEQ ID NO: 20)]
[1]
  binding result: binds

B1: Biotinylated AGM-330 (peptide)
peptide: RHGAMVYLK
modifications: also: biotin-conjugated (site not given here)
notes: Bait of the pull-down assays; also called AGM-330-biotin; AGM-330-Biotin
[1]
  EC50 (read off the curve): ~2000 nM
